From US20070219354A1

Target: 2081/anti-NF IgG, polyclonal antibody generated against the SEVNF peptide
Assay: ORIGEN ECL competition against biotinylated-SEVNF; reference SEVNF

B1: SEVNL peptide (peptide)
peptide: SEVNL
B1 was tested, and the fold less effective in competition than SEVNF was 100 fold.
